PMC5322387 (2017)

B1: PDK4 (protein)
chain: not shown
modifications: lipoylated, DANS-As-labeled L1
B2: E2 L1 L1 lipoyl domain (protein)
chain: HQKVPLPSLSPTMQAGTIARWEKKEGDKINEGDLIAEVETDKATVGFESLEECYMAKILVAEGTRDVPIGAIICITV
B3: E2 L1L2S-ML1 L1L2S tridomain (protein)
chain: HQKVPLPSLSPTMQAGTIARWEKKEGDKINEGDLIAEVETDKATVGFESLEECYMAKILVAEGTRDVPIGAIICITVGKPEDIEAFKNYTLDSSAAPTPQAAPAPTPAATASPPTPSAQAPGSSYPPHMQVLLPALSPTMTMGTVQRWEKKVGEKLSEGDLLAEIETDKATIGFEVQEEGYLAKILVPEGTRDVPLGTPLCIIVEKEADISAFADYRPTEVTDLKPQVPPPTPPPVAAVPPTPQPLAPTPSAPCPATPAGPKGRVFVSPLAKKLAVEKGIDLTQVKGTGPDGRITKKDIDSFV
B4: E2 L1L2S-ML2 L1L2S tridomain (protein)
chain: B3 chain
B5: PDK3 (protein)
chain: not shown
modifications: L1 lipoylation Lys to Ala, lipoylated, DANS-As-labeled
B6: PDK3 (protein)
chain: not shown
modifications: lipoylated, DANS-As-labeled L1
B7: PDK1 (protein)
chain: not shown
modifications: L2 lipoylation Lys to Ala, lipoylated, DANS-As-labeled
B8: PDK1 (protein)
chain: not shown
modifications: L1 lipoylation Lys to Ala, lipoylated, DANS-As-labeled
B9: PDK1 (protein)
chain: not shown
modifications: lipoylated, DANS-As-labeled L1
B10: PDK3 (protein)
chain: not shown
modifications: lipoylated, DANS-As-labeled L3S'
B11: PDK3 (protein)
chain: not shown
modifications: lipoylated, DANS-As-labeled L2S
B12: PDK4 (protein)
chain: not shown
modifications: L1 lipoylation Lys to Ala, lipoylated, DANS-As-labeled
B13: PDK4 (protein)
chain: not shown
modifications: lipoylated, DANS-As-labeled L2S
B14: PDK4 (protein)
chain: not shown
modifications: lipoylated, DANS-As-labeled L3S'
B15: E2 L2S L2S didomain (protein)
chain: HMQVLLPALSPTMTMGTVQRWEKKVGEKLSEGDLLAEIETDKATIGFEVQEEGYLAKILVPEGTRDVPLGTPLCIIVEKEADISAFADYRPTEVTDLKPQVPPPTPPPVAAVPPTPQPLAPTPSAPCPATPAGPKGRVFVSPLAKKLAVEKGIDLTQVKGTGPDGRITKKDIDSFV
B16: PDK1 (protein)
chain: not shown
modifications: lipoylated, DANS-As-labeled L2S
B17: E3BP L3S' L3S' didomain (protein)
chain: PIKILMPSLSPTMEEGNIVKWLKKEGEAVSAGDALCEIETDKAVVTLDASDDGILAKIVVEEGSKNIRLGSLIGLIVEEGEDWKHVEIPKDVGPPPPVSKPSEPRPSPEPQISIPVKKEHIPGTLRFRLSPAARNILEKHSLDASQGTATGPRGIFTKEDALKLV
B18: PDK4 (protein)
chain: not shown
modifications: L2 lipoylation Lys to Ala, lipoylated, DANS-As-labeled
B19: PDK4 (protein)
chain: not shown
modifications: dapoxyl-labeled L3S'
B20: PDK3 (protein)
chain: not shown
modifications: L2 lipoylation Lys to Ala, lipoylated, DANS-As-labeled

Experiments:
E2 L1 L1 lipoyl domain = biological target: B2; test: fluorescence titration
PDK2 [1] = biological target: T1, PDK2 (Homo sapiens, UniProt Q15119); test: fluorescence titration
[2] = biological target: B3; test: fluorescence titration
[3] = biological target: B4; test: fluorescence titration
E3BP L3S' L3S' didomain [4] = biological target: B17; test: fluorescence titration (quenching)
E2 L2S L2S didomain = biological target: B15; test: fluorescence titration
E3BP L3S' L3S' didomain [5] = biological target: B17; test: fluorescence titration
PDK2 [6] = biological target: T1, PDK2; test: fluorescence titration (quenching)

B1
Kd (E2 L1 L1 lipoyl domain): 350 nM

B2
Kd (PDK2 [1]): 910 nM

B3
Kd (PDK2 [1]): 890 nM

B4
Kd (PDK2 [1]): 640 nM

B5
Kd [2]: 540 nM

B6
Kd (E2 L1 L1 lipoyl domain): 620 nM

B7
Kd [3]: 3620 nM

B8
Kd [2]: 2100 nM

B9
Kd (E2 L1 L1 lipoyl domain): 4430 nM

B10
Kd (E3BP L3S' L3S' didomain [4]): 103 nM

B11
Kd (E2 L2S L2S didomain): 1210 nM

B12
Kd [2]: 270 nM

B13
Kd (E2 L2S L2S didomain): 2070 nM

B14
Kd (E3BP L3S' L3S' didomain [5]): 5930 nM

B15
Kd (PDK2 [1]): 1380 nM

B16
Kd (E2 L2S L2S didomain): 17100 nM

B17
Kd (PDK2 [1]): 2070 nM
Kd (PDK2 [6]): 25 nM

B18
Kd [3]: 397 nM

B19
Kd (E3BP L3S' L3S' didomain [5]): 5020 nM

B20
Kd [3]: 396 nM
